Assay results from publication PMC9751785, “Characterization and Identification of a novel chromosome-encoded metallo-β-lactamase WUS-1 in Myroides albus P34” (Frontiers in Microbiology, 2022).

Columns and labels:
[1] = biological target: T1, WUS-1 (Myroides albus, UniProt A0A6I3LH21, K23R); assay: spectrophotometric imipenem hydrolysis, inhibition; assay type: biochemical
T1 construct: gene bla; mature domain, signal peptide removed (predicted cleavage between 19 and 20, Ala/Gln); pCold I in E. coli BL21, His-tag cut with thrombin; zinc enzyme

[2] = system: CC1(C)S[C@@H]2[C@H](NC(=O)C(C(=O)O)c3ccccc3)C(=O)N2[C@H]1C(=O)O; assay: continuous spectrophotometric hydrolysis assay, Michaelis-Menten fit; assay type: biochemical, Myroides albus; settings: 10 mM phosphate pH 7.4, 50 μM ZnCl2, 30 °C, SD within 15%
Text: (§1) continuous spectrophotometric hydrolysis assay, Michaelis-Menten fit on WUS-1

[3] = system: CC1(C)S[C@@H]2[C@H](NC(=O)[C@H](N)c3ccccc3)C(=O)N2[C@H]1C(=O)O; assay: as above; assay type: biochemical, Myroides albus; settings: 10 mM phosphate pH 7.4, 50 μM ZnCl2, 30 °C, SD within 15%
Text: as §1

[4] = system: C[C@@H](O)[C@H]1C(=O)N2C(C(=O)O)=C(S[C@@H]3CN[C@H](C(=O)N(C)C)C3)[C@H](C)[C@H]12; assay: as above; assay type: biochemical, Myroides albus; settings: 10 mM phosphate pH 7.4, 50 μM ZnCl2, 30 °C, SD within 15%
Text: as §1

[5] = system: CO[C@@]1(NC(=O)Cc2cccs2)C(=O)N2C(C(=O)O)=C(COC(N)=O)CS[C@@H]21; assay: as above; assay type: biochemical, Myroides albus; settings: 10 mM phosphate pH 7.4, 50 μM ZnCl2, 30 °C, SD within 15%
Text: as §1

[6] = system: Cc1nnc(SCC2=C(C(=O)O)N3C(=O)[C@@H](NC(=O)Cn4cnnn4)[C@H]3SC2)s1; assay: as above; assay type: biochemical, Myroides albus; settings: 10 mM phosphate pH 7.4, 50 μM ZnCl2, 30 °C, SD within 15%
Text: as §1

[7] = system: C[C@@H](O)[C@H]1C(=O)N2C(C(=O)O)=C(SCCN=CN)C[C@H]12; assay: as above; assay type: biochemical, Myroides albus; settings: 10 mM phosphate pH 7.4, 50 μM ZnCl2, 30 °C, SD within 15%
Text: as §1

[8] = system: CC1(C)S[C@@H]2[C@H](NC(=O)[C@H](C(=O)O)c3ccsc3)C(=O)N2[C@H]1C(=O)O; assay: as above; assay type: biochemical, Myroides albus; settings: 10 mM phosphate pH 7.4, 50 μM ZnCl2, 30 °C, SD within 15%
Text: as §1

T1 sequence (A0A6I3LH21 entry or part of it K23R): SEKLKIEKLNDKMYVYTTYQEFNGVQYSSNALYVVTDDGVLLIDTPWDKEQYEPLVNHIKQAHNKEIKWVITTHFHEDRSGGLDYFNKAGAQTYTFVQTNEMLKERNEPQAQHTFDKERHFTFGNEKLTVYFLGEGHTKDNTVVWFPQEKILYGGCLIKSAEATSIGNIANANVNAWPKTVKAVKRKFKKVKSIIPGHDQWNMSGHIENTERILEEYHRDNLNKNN

`O=C(O)CN(CCN(CC(=O)O)CC(=O)O)CC(=O)O` [EDTA] showed an IC50 [1] of 71.3 µM.

In the case of WUS-1 (Myroides albus; K23R), the Km [2] is reported as 581 µM, the kcat [2] is reported as 1120 s⁻¹ and the kcat/Km [2] is reported as 1.93e+06 M⁻¹ s⁻¹. For the same molecule, the Km [3] was 290.2 µM, the kcat [3] was 2920 s⁻¹ and the kcat/Km [3] was 1.01e+07 M⁻¹ s⁻¹. It also gave a Km [4] of 147.4 µM, a kcat [4] of 477 s⁻¹ and a kcat/Km [4] of 3.24e+06 M⁻¹ s⁻¹. It also gave a Km [5] of 44.33 µM, a kcat [5] of 14.2 s⁻¹ and a kcat/Km [5] of 320000 M⁻¹ s⁻¹. For the same molecule, the Km [6] was 59.86 µM, the kcat [6] was 33.9 s⁻¹ and the kcat/Km [6] was 570000 M⁻¹ s⁻¹. It also gave a Km [7] of 334.8 µM, a kcat [7] of 1340 s⁻¹ and a kcat/Km [7] of 3.99e+06 M⁻¹ s⁻¹. For the same molecule, the Km [8] was 827.4 µM, the kcat [8] was 703 s⁻¹ and the kcat/Km [8] was 850000 M⁻¹ s⁻¹.
